According to the DeepSol protein solubility set:

Experiment: soluble on expression in E. coli; label from the status in PepcDB or PDB records

Sequence | soluble on expression in E. coli
MVQAFEPYIALNSHVRKPVIHISLNPSPKDILSKEQMTVLAQEFMEKFGYGNQPYIVWLHEDIDRKHMHIISVRINEKGEKIDHNREAIRAQNICRDMEVKYGLHSTLGEHSERELLSLQKVDYPKGDVKAQVKHTARTLLECYNCHSLAEYNTLLNLYNVTVYEVRGSVDGKEYYGIMYGALDDDGQQAGTPFKSSKFGKVFGYEALQKKFAATAEKVLEHHHHHH | not soluble
MGSDKIHHHHHHMAANNTITFYDLALSTGATISPFVWATKYALKHKGFDLDVVPGGFTGILERTGGKTERLPAIVDDGEFVLDSWGIVEYLDAKYPDRPVLIPHESVAATLKALDNWFWNAAVGPWMFCFCQDYRDLSLPQDHEYVTHSREKMLGRKLEEVQAGREERLPKISAALEPLRAALAQHQWLGGSSPNYADYRIMGGILFTASVCKTPVLANDDPLRDWIERCLDLYGGLGRHPGLFPLFGLEQREGDPDLFNRAAGQGGIYKRNTGPESTRAETQRITEGMKK | not soluble
GSHMAKTLKDLDGWQVIITDDQGRVIDDNNRRRSRKRGGENVFLKRISDGLSFGKGESVIFNDNVTETYSVYLIHEIRLNTLNNVVEIWVFSYLRWFELKPKLYYEQFRPDLIKEDHPLEFYKDKFFNEVNKSELYLTAELSEIWLKDFIAVGQILPESQWNDSSIDKIEDRDFLVRYACEPTAEKFVPIDIFQIIRRVKEMEPKQSDEYLKRVSVPVSGQKTNRQVMHKMG | soluble
MAHHHHHHMGKAAKGRTAMPGKLDTTEADKRTPKSIIIYRGEVGIHVRSLMHEWRNVFLPWSSKKLHGKNKSLKDFLAVAATFSASHLQLFTAPSQGTSLRIMRFFNGPTLSFRVLSFTLHKEIVAKQRRPVAVDRAAWEVAPIVVLNNFTHPDLAHRAEVPLLTATFKALFPSLNVQTIQSSEIQRICLFHYDHVEHVVEVRHYYINARTVGVTKTVKKLLENRRPTKLGTLESIDEVLDREDAWSDTDG | not soluble
NNTPVTNKLKAYGDANFNFTNNSIADAEKQVQEAYKGLLNLNEKNASDKLLVEDNTAATVGNLRKLGWVLSSKNGTRNEKSQQVKHADEVLFEGKGGVQVTSTSENGKHTITFALA | soluble
MKLTDRLLKIASLVSDGKKIADIGTDHGYIPVYLLKEGKVPFAVLADVNKGPLDNAHKEVIQNNLLDKVDLRLGSGIEILEIGEVEEVIIAGMGGILISELLEAKKEVAHNVEKLILQPMQAQEELRYYLLNNGYEILEEVLVREDFRIYEIIVAKYTGKNTIIEDEIYYEVGIKLLENKDSLFNDFIEKKIKTYSSIVNKLEGKNGEAIDKKRKESEVAIKKLENLIK | not soluble
MPTFTTHRQIAHSAREMFDLVADIECYPEFLPMCEALIVRSRKKCEEKTLLLADMTVGYKLVRETFTTQVFLQPKEKRIEVKYIDGPFKYLENRWAFHHTEKSNICNIEFFIDYEFKSKMLGLVMGSMFDIAFHKFTDAFERRAHRIYGSPVI | soluble
DITGIATGYRDLDHMTTGLHEEELIILAARPAVGKTAFALNIAQNIGTKLDKTVAIFSLEMGAESLVDRMLAAEGLVESHSIRTGQLTDEEWQKYTIAQGNLANASIYIDDTPGIRITEIRSRSRKLAQETGNLGLILIDYLQLITGTGRENRQQEVSEISRQLKILAKELKVPVIALSQLSRGVEQRQDKRPVLSDI | not soluble
MNLQHHFLIAMPALQDPIFRRSVVYICEHNQNGAMGIIVNKPLENLQIEGILEKLKITPESRDSAIRLDKAVMLGGPLAEDRGFILHTPPSRFASSIRISDNTVITTSRDVLETLGTQQQPSDVLVALGYASWDKGQLEQELLDNAWLTAPADLNILFKTPIAERWREAAKLIGIDILTMPGVAGHALEHHHHHH | soluble
MESDTSRTPYNSIYATLKNKKTDGEVVCCVHGRRCSYGKGNQDGKRDDNQYVNLPFLKNQDQIASKLTGKLNKLKIAEEKENKIVPREKPEMMSLNTLVEIARAGEQPRKGRGDKEKRTKKAPVLVDDSQLYVMIGPPSEHPGEPPASEPTETYKTNTIDESTFKGSEALSAYIGVVTLANAENHLTRRGEFALYHLFNPNGRLDTITDKLPLMIVYRTTTKKNRHYSIRTTCDQQFFVDCGYPNVRKHYSLSHLVMFYKTSATCEINPDDTSADSFSWWLE | not soluble
MGSDKIHHHHHHMHTDVNQLFAALWDDYVEMTPSAAKVHQLLAKGETIINDHIALRTFNIAKVNLSVLAKHFESLGYVACGDYDFEAKKLKAKHFEHPDPTQPKVFISELMVEAFSPELQAIVHGLVEQVDEAATTADNFLYSGRHWELDYATYEQLLAESEYAAWVAAFGYRANHFTVSINHLPGYNTILEVNETLKQGDFVLNSVGGEVKGSADVLLEQSSTMADKVNVAFKDVQKTIPSCFYEFALRYPKADGELYTGFVAASADKIFESTNNAG | not soluble
MAHHHHHHMCVRSMDPTKKGNENFPQRNVAIEEANFDSAFPAFNVHYNVEPKDWRHIELVEKEKQDFLLGIKKEIRLMQEDKNKINYVLNVQKQQLEELQFLLNRMKHFRRKSLIAEGEEQLKVDLLAMPRYLRTGTLFSVDTLGEENALRDFNELHNYSVDKSRLTTRGSFYHNLAEQWVG | not soluble
SNAVRQVEEYIEANWMRPITIEKLTALTGISSRGIFKAFQRSRGYSPMAFAKRVRLQHAHNLLSDGATPTTVTAAALSCGFSNLGHFARDYRDMFGEKPSETLQRARP | soluble
MKRKESAFKSMLKQAAPPIELDAVWEDIRERFVKEPAFEDITLESERKRIFKDFMHVLEHECQH | soluble
GMAEAKSRVGRPSGDTQNRDKLILAARNLFIERPYAQVSIREIASLAGTDPGLIRYYFGSKEKLFSTMIHETAMPVLAQLHKARRETRQESPAALLQTYYSVMSKHPHFPRLMLRIAGLDQSLPENAEVTKAFYEVVNFENIAIFQRLKDKNLLKDDVDAHCAQLSFFAMMVFPFIVPENLLERVGIELTPDFLQLLAEQNTRLLQRGLMDVKDERDE | soluble
GSHNSHMKLQEVEIRNKDLEGQLSEMEQRLEKSQSEQDAFRSNLKTLLEILDGKIFELTELRDNLAKLLECS | soluble
MRVAVDAMGGDNAPAVEVEGAVVAAREFGIPITLVGDTEKLRLELAKHNVQGLDIAIHHASEVVGMHDAASDAVRRKKDSSIRVAFDLVKSGEAEAVVSAGNSGATMAAGMFVLKRLKGIDRPAIAQIFPTLRGKTLVLDVGGNVDCKPIHLVQFAIMGEVYARHVIGVEQPRIGLLSNGEEDSKGNELTRETNAILKNISFDYEGYVEGRDIFNGMVDVVVCDGFVGNVVLKLSEGLAETVGKMLREEIASSLLSKLGYLFVRKAFKNFKKKVDYAEYGGAPLIGINGVAMICHGGSNVKAIKNAIHFAHEYVRKGVNQRLAEKMETEFTAYMQQFDAVKEAVAG | not soluble
GAMTKPRFTTGLVYDTLMLKHQCTAGSSSSHPEHAGRIQSIWSRLQETGLRGKCEAIRGRKATLEELQTVHSEAHTLLYGTNPLNRQKLDSKKLLGSLASVFVRLPCGGVGVDSDTIWNEVHSAGAARLAVGCVVELVFKVATGELKNGFAVVRPPGHHAEESTPMGFCYFNSVAVAAKLLQQRLSVSKILIVDWDVHHGNGTQQAFYSDPSVLYMSLHRYDDGNFFPGSGAPDEVGTGPGVGFNVNMAFTGGLDPPMGDAEYLAAFRTVVMPIASEFAPDVVLVSSGFDAVEGHPTPLGGYNLSARCFGYLTKQLMGLAGGRIVLALEGGYDLTAICDASEACVSALLGNELDPLPEKVLQQRPNANAVRSMEKVMEIHSKYWRCLQRTTSTAGRSLIEAQTCENEEAETVT | soluble
MAHHHHHHMVLITSNCARVAAFTRKAACSGALCDRHRCISGGGRGDLFTRHAGAFKPPAFGVLRGLTHSSQTTHPQTGQLQARKRIQHAMHDRTLSGSGHHRTAVATWSYLLHSLRQNVEQAVPDALYEKLLTDEVPLTPAESRQLADAHRLLRFELQKRIGLLEDSLADAALPYLLQWPALFQRAWLRLPMDQGRASVTEANHDAVVPAPPSFVHAPAALPVTEWAPTLSPASPPACSNGLIGRGALVPRLAQLTRHVIRCVEEDLGRLEHVSEPREDGVPRSRRQVALEAAWRAQWASLLTWHAGVSYGMG | soluble
VRTHEVVLHRIEQDLAAGKLTVGGRLPAERALAEELGVGRSSVREAMRVLEAMGIVRTAVGSGPDAGAIVAADPAASIGAAIRLHMATRTLPIHDVVQTRTLLESWAVQEAAGQAPDLDFSAIDTLLDAMDDEDLSPEAFHRLDADLHVAMAGLAGNVLVEAMMVSLRDSIHGYVMQAVPLLDDWPAVATHLRCEHRGIVAALRDGHGAEAAGLVREHIEGFYGRFAPVRG | not soluble
MGSDKIHHHHHHMAQALYANVAVVNSKEHKDLKIKPINHFRYAAKIQSCPISDIEFFPCSLSHPIMFAKAEDGKIVPLALMGLERETNQFVSSEGVWKEGEYMPAFLRRYPFIMVRDPENTRMVVGLDMDAEGVNRDEGRELFDEKSEASEFAKSAMKFLTDFQEAFDRTQNFLAKMSELELFDDAVFNWEFKGVTSSFGGFMRIDEKKLDELDDETLLALTRSGHYKLIVAHLVSLRRFQRLVDWKMRPAS | not soluble
MADGLRVALVAGEASGDILGSGLMQALRARHPDIEFIGVGGPRMEAEGLSSYFPMERLSVMGLVEVLGRLPELLRRRKRLIRTLIEARPDVMIGIDAPDFTLGVEHKLRQAGLRTVHYVSPSVWAWRQKRVLKIREACDLMLALFPFEARFYEEHGVPVRFVGHPLANTIPLQADRAAARARLGLPADGQVLALMPGSRGGEVGKLGALFLDTAQRLLVERPGLRFVLPCASAARREQIEQMLQGREPLPLTLLDGASHEALAACDAVLIASGTATLEALLYKRPMVVAYRVAGLTYRILKRLVKSPYISLPNLLAGRLLVPELIQDAATPQALAATLSPLLDDGSQQVEFFDAIHRALRQDASAQAA | not soluble
MSLGYAFPSILGNLMSKIYQMDAVDWLKTLENCSVDLFITDPPYESLEKYRQIGTTTRLKESKSSSNQWFSVFPNTRFEELFREVYRVLKKGSHFYLFCDQETMFLAKPIAESVGFKFWKPIVWDKCAIGMGYHYRARYEFILFFEKGKRKLNDLSVPDVLEYKRVWKGYPTEKPVELLEVLIRQSSSENEIVADSFFGSGSTLIAANNLSRKYIGCDISSSAHEYFKNRAEGHHHHHH | soluble
MTSITPVTLANCEDEPIHVPGAIQPHGALVTLRADGMVLAASENIQALLGFVASPGSYLTQEQVGPEVLRMLEEGLTGNGPWSNSVETRIGEHLFDVIGHSYKEVFYLEFEIRTADTLSITSFTLNAQRIIAQVQLHNDTASLLSNVTDELRRMTGYDRVMAYRFRHDDSGEVVAESRREDLESYLGQRYPASDIPAQARRLYIQNPIRLIADVAYTPMRVFPALNPETNESFDLSYSVLRSVSPIHCEYLTNMGVRASMSISIVVGGKLWGLFSCHHMSPKLIPYPVRMSFQIFSQVCSAIVERLEQGRIAELLRVSTERRLALARRARDADDLFGALAHPDDGIAALIPCDGALVMLGGRTLSIRGDFERQAGNVLQRLQRDPERDIYHTDNWPQPSEDSPDGGDCCGVLAIRFHRQESGWIFWFRHEEVHRIRWGGKPEKLLTIGPSGPRLTPRGSFEAWEEVVRGHSTPWSETDLAIAEKLRLDLMELCLNHALEHHHHHH | soluble
MGSDKIHHHHHHMDFLDFEKVFSFYSKATKKGFSPFFVPALEKAEEPAGNFFLDRKGNLFSIREDFTKTVLNHRKRYSPDSQIKVWYADFVYRYSGSDLVAEYQLGLEKVPRNSLDDSLEVLEIIVESASEFFEGPVIVEIGHTGVYEDLLKEIPKDLHEKVLNLIDTKNLAEIEFLSHMKKIDLSRVEKIIEDSIYRRSPEHLKTMDLPLSVREDLLSASSFLQEKFPTVSVEIDLTLARTIEEYCGLIFTIYDTSSSRLVAAGGEYTVNGEKGVGGSIFLEGKTC | not soluble
